Experimental data taken from PMC2900545.

Substrate: CCc1c2c(nc3ccc(O)cc13)-c1cc3c(c(=O)n1C2)COC(=O)[C@]3(O)CC
Test: purified protein
Details: UDPGA

B1: UGT1A1 (Homo sapiens) (protein)
chain: HAGKILLIPVDGSHWLSMLGAIQQLQQRGHEIVVLAPDASLYIRDGAFYTLKTYPVPFQREDVKESFVSLGHNVFENDSFLQRVIKTYKKIKKDSAMLLSGCSHLLHNKELMASLAESSFDVMLTDPFLPCSPIVAQYLSLPTVFFLHALPCSLEFEATQCPNPFSYVPRPLSSHSDHMTFLQRVKNMLIAFSQNFLCDVVYSPYATLASEFLQREVTVQDLLSSASVWLFRSDFVKDYPRPIMPNMVFVGGINCLHQNPLSQEFEAYINASGEHGIVVFSLGSMVSEIPEKKAMAIADALGKIPQTVLWRYTGTRPSNLANNTILVKWLPQNDLLGHPMTRAFITHAGSHGVYESICNGVPMVMMPLFGDQMDNAKRMETKGAGVTLNVLEMTSEDLENALKAVINDKSYKENIMRLSSLHKDRPVEPLDLAVFWVEFVMRHKGAPHLRPAAHDLTWYQYHSLDVIGFLLAVVLTVAFITFKCCAYGYRKCLGKKGRVKKAHKSKTH
In the case of B1, the Km is reported as 2.5 ± 0.3 µM.
